The text below walks through data of article PMC9440474 (2022).

One assay deals with T1, S1_APBA-3* (linker (positions not given here) via APBA‑3; reading uncertain).
T1 chain: ACLIPSWGCGGG-{Dap(FAM)}
Briefly: fluorescence polarization.

The target of a further assay is T2, S1_SS* (disulfide 2-9 (inferred)).
T2 chain: ACLIPSWGCGGG-{Dap(FAM)}
Briefly: fluorescence polarization.

Another assay addresses T3, S1_SS (disulfide 2-9 (inferred)).
T3 chain: ACLIPSWGCGGG
Briefly: fluorescence polarization competition.

Bridge positions count the residues as written; N and C are the ends. Ends that are not written are not given here. APBA‑3 = not defined here

B1: Sortase A (protein)
chain: MKKWTNRLMTIAGVVLILVAAYLFAKPHIDNYLHDKDKDEKIEQYDKNVKEQASKDKKQQAKPQIPKDKSKVAGYIEIPDADIKEPVYPGPATPEQLNRGVSFAEENESLDDQNISIAGHTFIDRPNYQFTNLKAAKKGSMVYFKVGNETRKYKMTSIRDVKPTDVGVLDEQKGKDKQLTLITCDDYNEKTGVWEKRKIFVATEVK
In the case of B1, the Kd with S1_APBA-3* was 64 µM; in the assay with S1_SS*, 5.2 µM. In the assay with S1_SS, this molecule registered an IC50 of 26 µM.
